Patent publication US8617883

Target: Ephrin-B2 (human, full length coding sequence, expressed on mesenchymal stem cells nucleofected with pEphrin-B2/IRES2-eGFP) (human) (UniProt P52799)
Assay: flow cytometry, Fc-chimera binding to Ephrin-B2-transfected MSCs against untransfected MSCs, FITC anti-human IgG1 detection

Sequence of UniProt P52799 (P52799 28-333): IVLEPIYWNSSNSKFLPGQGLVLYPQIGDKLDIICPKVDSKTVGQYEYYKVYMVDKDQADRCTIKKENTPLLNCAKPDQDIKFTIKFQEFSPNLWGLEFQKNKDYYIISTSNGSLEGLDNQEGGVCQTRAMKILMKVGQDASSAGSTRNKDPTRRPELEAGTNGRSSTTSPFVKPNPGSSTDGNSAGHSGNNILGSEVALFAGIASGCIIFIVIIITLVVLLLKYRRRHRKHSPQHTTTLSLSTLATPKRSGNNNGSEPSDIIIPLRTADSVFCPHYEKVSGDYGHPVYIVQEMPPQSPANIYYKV

increase in binding to transfected MSCs compared to normal cells: 22%
Substance: Eph-B4/Fc chimera protein (pre-clustered) (Fc fusion)
